Laboratory results from patent US6406896.

Tests used:
Tnp E58V plus one E58V = experiment: cell_activity; conditions: mating out, dam+ strain
[1] = system: sC7 E58V minus one R8C,A157T,T171S,D217A,E344K,L372Q; experiment: cell_activity; conditions: mating out, dam+ strain
[2] = system: sC7 A157T minus one R8C,E58V,T171S,D217A,E344K,L372Q; experiment: cell_activity; conditions: mating out, dam+ strain
[3] = system: Tnp sC7(171,217) R8C,E58V,A157T,E344K,L372Q; experiment: cell_activity; conditions: mating out, dam+ strain
[4] = system: sC7 E344K minus one R8C,E58V,A157T,T171S,D217A,L372Q; experiment: cell_activity; conditions: mating out, dam+ strain
[5] = system: sC7 T171S minus one R8C,E58V,A157T,D217A,E344K,L372Q; experiment: cell_activity; conditions: mating out, dam+ strain
Tnp E344K plus one E344K = experiment: cell_activity; conditions: mating out, dam+ strain
Tnp L372Q plus one L372Q = experiment: cell_activity; conditions: mating out, dam+ strain
[6] = system: Tnp sC7v2.0 (sC7(157,171,217)) R8C,E58V,E344K,L372Q; experiment: cell_activity; conditions: mating out, dam+ strain
[7] = system: sC7 D217A minus one R8C,E58V,A157T,T171S,E344K,L372Q; experiment: cell_activity; conditions: mating out, dam+ strain
Tnp T171S plus one T171S = experiment: cell_activity; conditions: mating out, dam+ strain
[8] = system: sC7 R8C minus one E58V,A157T,T171S,D217A,E344K,L372Q; experiment: cell_activity; conditions: mating out, dam+ strain
[9] = molecular target: Tn5 transposase wild-type (Tnp WT) (UniProt Q46731); experiment: cell_activity; conditions: mating out
[10] = system: Tnp sC7(157,171) R8C,E58V,D217A,E344K,L372Q; experiment: cell_activity; conditions: mating out, dam+ strain
[11] = system: Tnp sC7(157,217) R8C,E58V,T171S,E344K,L372Q; experiment: cell_activity; conditions: mating out, dam+ strain
[12] = molecular target: Tnp sC7 R8C,E58V,A157T,T171S,D217A,E344K,L372Q (UniProt Q46731); experiment: cell_activity; conditions: mating out
[13] = system: sC7 L372Q minus one R8C,E58V,A157T,T171S,D217A,E344K; experiment: cell_activity; conditions: mating out, dam+ strain
[14] = system: Tnp sC7v2.0 purified R8C,E58V,E344K,L372Q; experiment: cleavage_in_vitro; conditions: dam methylation of adenines in the two GATC sites (four methyl groups per end); in vitro transposition, 3 h, 37C, 280 nM Tnp, 35.5 nM pGT4
Tnp R8C plus one R8C = experiment: cell_activity; conditions: mating out, dam+ strain
Tnp D217A plus one D217A = experiment: cell_activity; conditions: mating out, dam+ strain
Tnp A157T plus one A157T = experiment: cell_activity; conditions: mating out, dam+ strain
[15] = dam methylation of adenines in the two GATC sites (four methyl groups per end)
[16] = dam methylation of adenines in the two GATC sites (four methyl groups per end), dam+ strain

Substance: Dam-methylated Tn5 inside end (IEME)
- activity (transposition frequency) (Tnp E58V plus one E58V; dam methylation of adenines in the two GATC sites (four methyl groups per end), 40000-fold over WT): 0.0004
- activity (transposition frequency) [1, 15]: 1.8e-06
- activity (transposition frequency) [2, 15]: 0.0031
- activity (transposition frequency) [3, 15]: 0.0058
- activity (transposition frequency) [4, 15]: 0.00055
- activity (transposition frequency) [5, 15]: 0.0028
- activity (transposition frequency) (Tnp E344K plus one E344K; dam methylation of adenines in the two GATC sites (four methyl groups per end), 4.3-fold over WT): 4.3e-08
- activity (transposition frequency) (Tnp L372Q plus one L372Q; dam methylation of adenines in the two GATC sites (four methyl groups per end), 8.9-fold over WT): 8.9e-08
- activity (transposition frequency) [6, 15]: 0.0074
- activity (transposition frequency) [7, 15]: 0.0037
- activity (transposition frequency) (Tnp T171S plus one T171S; [15]): 5.6e-09
- activity (transposition frequency) [8, 15]: 0.0031
- activity (transposition frequency) [9, 16]: 1e-08
- activity (transposition frequency) [10, 15]: 0.0065
- activity (transposition frequency) [11, 15]: 0.0084
- activity (transposition frequency) [12, 16]: 0.0026
- activity (transposition frequency) [13, 15]: 0.00026
- activity (% supercoiled plasmid converted) [14]: 66

Substance: Tn5 inside end (IE), unmethylated
- activity (transposition frequency) ([9]; dam- strain): 6.5e-05
- activity (transposition frequency) ([12]; dam- strain): 0.0018

Substance: Tn5 outside end (OE)
- activity (transposition frequency) (Tnp E58V plus one E58V): 1.4e-06
- activity (transposition frequency) [1]: 1.1e-06
- activity (transposition frequency) [2]: 4e-06
- activity (transposition frequency) [3]: 1.18e-05
- activity (transposition frequency) (Tnp R8C plus one R8C): 4e-07
- activity (transposition frequency) [4]: 1.7e-05
- activity (transposition frequency) [5]: 2.6e-06
- activity (transposition frequency) (Tnp D217A plus one D217A): 3.4e-06
- activity (transposition frequency) (Tnp A157T plus one A157T): 6.6e-07
- activity (transposition frequency) (Tnp E344K plus one E344K): 6.8e-07
- activity (transposition frequency) (Tnp L372Q plus one L372Q): 1.1e-05
- activity (transposition frequency) [6]: 7.1e-06
- activity (transposition frequency) [7]: 4.5e-06
- activity (transposition frequency) (Tnp T171S plus one T171S): 1.8e-06
- activity (transposition frequency) [8]: 6e-06
- activity (transposition frequency) ([9]; dam- strain, 3.1e-6 in dam+ strain): 6.5e-05
- activity (transposition frequency) [10]: 7e-06
- activity (transposition frequency) [11]: 2.25e-05
- activity (transposition frequency) ([12]; dam- strain, 3.3e-6 in dam+ strain): 3.7e-05
- activity (transposition frequency) [13]: 2.8e-07
